Measured values as given in US20230068663A1 (University of Texas, published 2023).

T1: LAIR1 on reporter cells (UniProt Q6GTX8 22-165, limits assumed)
T1 sequence (looked up): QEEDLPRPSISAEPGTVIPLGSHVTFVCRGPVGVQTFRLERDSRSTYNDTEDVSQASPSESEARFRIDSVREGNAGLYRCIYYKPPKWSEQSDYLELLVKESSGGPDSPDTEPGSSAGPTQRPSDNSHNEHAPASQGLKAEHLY


Tests used:
[1] = molecular target: T2, endogenous LILRB2 on human myeloid cells / primary monocytes (human, UniProt Q8N423 22-597); assay: flow cytometry, CD14+CD16- monocytes, AF647-conjugated antibody
T2 construct: whole, on cells; also called cells expressing endogenous LILRB2
Method: FIG. 32. Binding of LILRB2 antibodies on CD14⁺CD16-monocytes isolated from human PBMC from healthy donors. Fifty thousand cells were incubated for 30 minutes at 4° C. with a dilution series (40-0.0006 μg/mL) of LILRB2 antibodies directly conjugated to AF647 in a final volume of 100 μL. Data shown is averaged geometric mean of fluorescence intensity from duplicate samples acquired in a flow cytometer (BD FACS Celesta) from one donor and is representative of 2 experiments with cells isolated from different donors.

[2] = molecular target: T3, LILRB2 chimeric receptor on LILRB2 reporter cells (extracellular domain of LILRB2 fused with … (UniProt Q8N423 22-460)); assay: cell-based or functional assay
[3] = molecular target: T3, LILRB2 chimeric receptor on LILRB2 …; assay: flow cytometry, LILRB2 reporter cells
[4] = molecular target: T3, LILRB2 chimeric receptor on LILRB2 …; assay: flow cytometry on LILRB2 reporter cells, APC anti-human IgG
Description: FIGS. 1A-C. Screening specific monoclonal antibodies for LILRB2. […] Binding of monoclonal antibodies was screened using flow cytometer on LILRB2 reporter cells. Bound antibodies were detected with Allophycocyanin (APC)-labeled goat anti-human IgG secondary antibody. (FIG. 1B) Quantification of binding ability of monoclonal antibodies to LILRB2 reporter cells.
Screening specific monoclonal antibodies for LILRB2. The inventors employed a stable reporter cell system to detect the binding ability of selected monoclonal antibodies to LILRB2. In this chimeric receptor reporter system, the extracellular domain (ECD) of LILRB2 is fused with transmembrane/intracellular domains of PILRb that associates with the adaptor protein DAP12 containing an immunoreceptor tyrosine-based activation motif. 27 monoclonal antibodies were screened. The LILRB2 reporter cells were incubated with selected monoclonal antibody, then labeled with (APC) goat anti-human IgG secondary antibody. […] The inventors generated LILRBAs and LILRBs reporters stably transduced with each receptor's extracellular domain (ECD).

[5] = molecular target: T4, full length human LILRB2 stably expressed on HEK293 cells (human, UniProt Q8N423 22-597); assay: competition flow cytometry, inhibition of SEMA4A-hFc-AF647 binding to HEK293_LILRB2 cells
T4 construct: whole, on cells; also called HEK293_LILRB2
Method: FIG. 34. […] Incubation was performed for 30 minutes at 4° C. Data shown is averaged geometric mean of fluorescence intensity ± standard error of the mean (s.e.m.) from duplicate samples acquired in a flow cytometer (BD FACS Celesta).

[6] = molecular target: T3, LILRB2 chimeric receptor on LILRB2 …; assay: flow cytometry, reporter cells
Method: (§1) FIG. 29. Binding of LILRB2 antibodies on reporter cell line expressing ectodomain of LILR family proteins on cell surface. Bound antibodies were detected with anti-human Fc-specific secondary antibody (2nd Ab) conjugated to AF647. […] All incubations were performed for 30 minutes at 4° C. Data shown is mean fluorescence intensity after sample acquisition in flow cytometer.

[7] = molecular target: T5, LILRA4; assay: flow cytometry, reporter cells
T5 construct: also called LILRA4 reporter cells
T5 sequence (chain, as listed by the source limits assumed): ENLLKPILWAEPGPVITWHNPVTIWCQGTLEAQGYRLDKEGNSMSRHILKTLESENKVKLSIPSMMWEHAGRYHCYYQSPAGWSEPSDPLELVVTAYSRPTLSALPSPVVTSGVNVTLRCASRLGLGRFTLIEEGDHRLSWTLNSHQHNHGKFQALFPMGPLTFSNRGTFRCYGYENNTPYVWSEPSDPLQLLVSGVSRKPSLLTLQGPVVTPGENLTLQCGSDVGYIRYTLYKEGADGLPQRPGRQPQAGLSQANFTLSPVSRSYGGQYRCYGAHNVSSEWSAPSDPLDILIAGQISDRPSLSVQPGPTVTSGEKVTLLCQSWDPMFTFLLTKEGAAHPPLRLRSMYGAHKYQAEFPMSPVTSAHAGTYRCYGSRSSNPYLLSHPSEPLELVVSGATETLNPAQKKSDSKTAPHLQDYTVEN
Method: as §1

[8] = molecular target: T6, LILRA3; assay: flow cytometry, reporter cells
T6 construct: also called LILRA3 reporter cells; not shown: transmembrane/intracellular domains of PILRb, the display part of the chimeric reporter receptor
T6 sequence (chain, as listed by the source limits assumed): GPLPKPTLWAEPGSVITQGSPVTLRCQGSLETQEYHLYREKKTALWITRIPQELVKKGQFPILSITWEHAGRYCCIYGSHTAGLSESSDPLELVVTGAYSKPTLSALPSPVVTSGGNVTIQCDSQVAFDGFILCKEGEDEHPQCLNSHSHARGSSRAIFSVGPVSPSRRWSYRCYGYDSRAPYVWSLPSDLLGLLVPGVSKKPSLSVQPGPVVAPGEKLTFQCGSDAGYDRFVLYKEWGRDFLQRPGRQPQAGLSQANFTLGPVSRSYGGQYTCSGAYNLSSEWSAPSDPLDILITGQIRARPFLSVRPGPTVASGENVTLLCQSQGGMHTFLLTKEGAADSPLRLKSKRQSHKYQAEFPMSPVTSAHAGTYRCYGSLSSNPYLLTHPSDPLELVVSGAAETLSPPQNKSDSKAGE
Method: as §1

[9] = molecular target: T7, LILRA6; assay: flow cytometry, reporter cells
T7 construct: also called LILRA6 reporter cells
T7 sequence (chain, as listed by the source limits assumed): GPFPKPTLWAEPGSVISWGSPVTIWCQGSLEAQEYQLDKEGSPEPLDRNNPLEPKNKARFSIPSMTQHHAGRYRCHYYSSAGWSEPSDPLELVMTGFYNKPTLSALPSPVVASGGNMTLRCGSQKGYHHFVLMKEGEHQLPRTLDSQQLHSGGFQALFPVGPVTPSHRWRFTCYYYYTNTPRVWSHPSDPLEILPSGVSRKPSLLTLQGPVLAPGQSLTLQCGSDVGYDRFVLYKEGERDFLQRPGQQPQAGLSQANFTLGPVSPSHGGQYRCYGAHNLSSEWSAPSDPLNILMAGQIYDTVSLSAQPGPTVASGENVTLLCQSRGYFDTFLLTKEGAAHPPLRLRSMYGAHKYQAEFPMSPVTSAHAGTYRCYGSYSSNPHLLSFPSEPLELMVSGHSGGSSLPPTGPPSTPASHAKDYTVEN
Method: as §1

[10] = molecular target: T8, LILRB5; assay: flow cytometry, reporter cells
T8 construct: also called LILRB5 reporter cells; not shown: transmembrane/intracellular domains of PILRb, the display part of the chimeric reporter receptor
T8 sequence (chain, as listed by the source limits assumed): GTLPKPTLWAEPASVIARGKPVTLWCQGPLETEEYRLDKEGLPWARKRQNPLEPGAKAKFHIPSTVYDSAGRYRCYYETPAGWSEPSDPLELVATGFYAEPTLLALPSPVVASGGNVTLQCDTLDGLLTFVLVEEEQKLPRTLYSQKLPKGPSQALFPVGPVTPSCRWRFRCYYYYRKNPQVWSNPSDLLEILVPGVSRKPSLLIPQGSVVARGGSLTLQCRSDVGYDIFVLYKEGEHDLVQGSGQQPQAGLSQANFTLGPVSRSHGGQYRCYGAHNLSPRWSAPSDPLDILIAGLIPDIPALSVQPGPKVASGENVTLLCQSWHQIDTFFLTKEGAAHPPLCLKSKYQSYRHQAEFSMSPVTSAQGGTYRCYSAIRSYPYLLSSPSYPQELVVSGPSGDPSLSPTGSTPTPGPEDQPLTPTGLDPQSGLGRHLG
Method: as §1

[11] = molecular target: T1, LAIR1 on reporter cells; assay: flow cytometry, reporter cells
Method: as §1

[12] = molecular target: T9, LILRA1 on reporter cells (extracellular domain) (UniProt O75019 17-461, limits assumed); assay: flow cytometry, reporter cells
T9 construct: extracellular domain
T9 sequence (O75019 17-461 limits assumed): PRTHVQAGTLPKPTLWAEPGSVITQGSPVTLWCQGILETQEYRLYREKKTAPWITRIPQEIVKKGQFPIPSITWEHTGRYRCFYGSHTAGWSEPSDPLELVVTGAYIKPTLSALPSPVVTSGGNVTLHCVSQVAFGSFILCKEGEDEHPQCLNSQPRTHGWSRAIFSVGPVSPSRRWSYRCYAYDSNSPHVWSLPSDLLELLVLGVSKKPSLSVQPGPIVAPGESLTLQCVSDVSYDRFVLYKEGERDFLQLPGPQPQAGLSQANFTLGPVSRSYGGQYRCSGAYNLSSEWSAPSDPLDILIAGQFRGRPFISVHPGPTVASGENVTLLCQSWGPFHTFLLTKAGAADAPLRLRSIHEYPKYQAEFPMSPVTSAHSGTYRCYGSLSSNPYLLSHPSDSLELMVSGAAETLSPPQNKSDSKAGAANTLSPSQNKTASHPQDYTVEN
Method: as §1

[13] = molecular target: T10, LILRB1; assay: flow cytometry, reporter cells
T10 construct: also called LILRB1 reporter cells; not shown: transmembrane/intracellular domains of PILRb, the display part of the chimeric reporter receptor
T10 sequence (chain, as listed by the source limits assumed): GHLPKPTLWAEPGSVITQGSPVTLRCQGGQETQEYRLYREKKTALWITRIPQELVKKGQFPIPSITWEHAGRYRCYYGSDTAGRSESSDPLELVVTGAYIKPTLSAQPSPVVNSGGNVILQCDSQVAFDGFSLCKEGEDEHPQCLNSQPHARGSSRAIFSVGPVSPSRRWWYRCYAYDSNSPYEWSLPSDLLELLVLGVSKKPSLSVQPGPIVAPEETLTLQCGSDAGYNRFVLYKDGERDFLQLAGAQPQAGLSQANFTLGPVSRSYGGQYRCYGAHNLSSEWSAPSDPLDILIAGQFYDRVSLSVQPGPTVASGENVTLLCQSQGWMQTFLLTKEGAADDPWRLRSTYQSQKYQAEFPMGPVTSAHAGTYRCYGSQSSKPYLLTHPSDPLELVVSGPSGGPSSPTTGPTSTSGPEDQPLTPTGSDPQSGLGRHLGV
Method: as §1

[14] = molecular target: T11, LILRB4; assay: flow cytometry, reporter cells
T11 construct: also called LILRB4 reporter cells; not shown: transmembrane/intracellular domains of PILRb, the display part of the chimeric reporter receptor
Method: as §1

[15] = molecular target: T12, LILRA5; assay: flow cytometry, reporter cells
T12 construct: also called LILRA5 reporter cells
T12 sequence (chain, as listed by the source limits assumed): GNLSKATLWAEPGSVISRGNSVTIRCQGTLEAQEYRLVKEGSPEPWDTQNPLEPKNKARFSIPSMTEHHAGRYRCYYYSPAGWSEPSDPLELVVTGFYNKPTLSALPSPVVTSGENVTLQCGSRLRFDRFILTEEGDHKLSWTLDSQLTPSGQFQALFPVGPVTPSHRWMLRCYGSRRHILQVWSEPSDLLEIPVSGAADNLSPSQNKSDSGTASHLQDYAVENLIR
Method: as §1

[16] = molecular target: T13, LILRB3; assay: flow cytometry, reporter cells
T13 construct: also called LILRB3 reporter cells; not shown: transmembrane/intracellular domains of PILRb, the display part of the chimeric reporter receptor
Method: as §1

[17] = molecular target: T14, LILRA2; assay: flow cytometry, reporter cells
T14 construct: also called LILRA2 reporter cells; not shown: transmembrane/intracellular domains of PILRb, the display part of the chimeric reporter receptor
T14 sequence (chain, as listed by the source limits assumed): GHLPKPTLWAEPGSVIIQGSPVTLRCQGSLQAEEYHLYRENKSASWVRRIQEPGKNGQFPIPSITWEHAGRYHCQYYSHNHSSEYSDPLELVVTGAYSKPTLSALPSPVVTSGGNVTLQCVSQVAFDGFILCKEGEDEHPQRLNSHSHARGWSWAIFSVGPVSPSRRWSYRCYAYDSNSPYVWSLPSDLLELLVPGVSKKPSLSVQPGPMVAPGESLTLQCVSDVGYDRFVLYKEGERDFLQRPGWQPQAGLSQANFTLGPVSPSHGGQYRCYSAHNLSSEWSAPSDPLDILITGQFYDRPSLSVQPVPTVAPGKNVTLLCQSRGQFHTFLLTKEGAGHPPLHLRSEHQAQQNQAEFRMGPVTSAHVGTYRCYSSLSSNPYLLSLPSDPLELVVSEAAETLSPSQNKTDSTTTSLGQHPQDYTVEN
Method: as §1

Row | Binder | EC50 [1] | Blocking potency (IC50) of GFP expression in LILRB2 reporter cells induced by coated ANGPTL2 [2] | % of cells anti-hIgG APC+ [3] | percent of LILRB2 reporter cells labeled [4] | IC50 [5] | MFI [6] | MFI [7] | binding result [7] | MFI [8] | binding result [8] | MFI [9] | binding result [9] | MFI [10] | binding result [10] | MFI [11] | binding result [11] | MFI [12] | binding result [12] | MFI [13] | binding result [13] | also measured
1 | B2-15 (antibody, V domains shown, also called B-15; B2-15_HC) VH: EVQLVQSGAEVKKSGASVKVSCKSSGYTFTNYGISWVRQAPGQGLEWMGWISGDAGDTKFAQKFQGRVTMTTDTSTTTTYMELRSLRSDDTAVYYCARDGEYIPMFRGFDNYYGLDVWGQGTLVSVSS VL: QSVLTQPPSASATPGQRVTISCSGRNANIGSNPVNWYQQLPGTAPRLVMYSNNQRPSGVPDRFSGSKSGTSASLAISGLQSEDEADYYCEGWDDSLNGYVFGTGTKVTVL | 0.056 µg/mL | 0.341 µg/mL | 94.3% | > 95% | 0.482 µg/mL | 910 | 9 | no binding | 10 | no binding | 10 | no binding | 11 | no binding | 22 | no binding | 10 | no binding | 9 | no binding | MFI [14]: 14; binding result [14]: no binding; MFI [15]: 11; binding result [15]: no binding; MFI [16]: 9; binding result [16]: no binding; MFI [17]: 10; binding result [17]: no binding
2 | B2-17 (antibody, V domains shown, also called B2-17_HC; B2-17_LC) VH: EVQLLDSGPRLLKPSETLSLTCGVSGVSTSSTHWWSWVRQTPGKGLEWIGEILHNGNTNSNPSLKSRVSMSIDKSRNQFSLQLKSMTAADTAVYYCASASPNWGASGAFDAWAQGTMVTVSS VL: QSVLTQPPSASATPGQRVTISCSGSSSNIGSNPVNWYQQVPGMAPELVMYSDNQRPSGVPDRFSGSNSGTSASLAISGLQSEDEADYYCSTWDDSLNGLVFGTGTKVTVL | > 10 µg/mL | 0.405 µg/mL | 94.3% | > 95% | 0.657 µg/mL | 1100 | 10 | no binding | 10 | no binding | 11 | no binding | 10 | no binding | 23 | no binding | 11 | no binding | 9 | no binding | MFI [14]: 13; binding result [14]: no binding; MFI [15]: 10; binding result [15]: no binding; MFI [16]: 10; binding result [16]: no binding; MFI [17]: 10; binding result [17]: no binding
